The assay has as its target β2 integrin on THP-1 cells (human) (UniProt P05107). The experiment in a line: THP-1 cell binding to immobilized KIM127 (competitor) with C domain 50 µg/ml.

Chain of β2 integrin on THP-1 cells (human) (P05107 23-769): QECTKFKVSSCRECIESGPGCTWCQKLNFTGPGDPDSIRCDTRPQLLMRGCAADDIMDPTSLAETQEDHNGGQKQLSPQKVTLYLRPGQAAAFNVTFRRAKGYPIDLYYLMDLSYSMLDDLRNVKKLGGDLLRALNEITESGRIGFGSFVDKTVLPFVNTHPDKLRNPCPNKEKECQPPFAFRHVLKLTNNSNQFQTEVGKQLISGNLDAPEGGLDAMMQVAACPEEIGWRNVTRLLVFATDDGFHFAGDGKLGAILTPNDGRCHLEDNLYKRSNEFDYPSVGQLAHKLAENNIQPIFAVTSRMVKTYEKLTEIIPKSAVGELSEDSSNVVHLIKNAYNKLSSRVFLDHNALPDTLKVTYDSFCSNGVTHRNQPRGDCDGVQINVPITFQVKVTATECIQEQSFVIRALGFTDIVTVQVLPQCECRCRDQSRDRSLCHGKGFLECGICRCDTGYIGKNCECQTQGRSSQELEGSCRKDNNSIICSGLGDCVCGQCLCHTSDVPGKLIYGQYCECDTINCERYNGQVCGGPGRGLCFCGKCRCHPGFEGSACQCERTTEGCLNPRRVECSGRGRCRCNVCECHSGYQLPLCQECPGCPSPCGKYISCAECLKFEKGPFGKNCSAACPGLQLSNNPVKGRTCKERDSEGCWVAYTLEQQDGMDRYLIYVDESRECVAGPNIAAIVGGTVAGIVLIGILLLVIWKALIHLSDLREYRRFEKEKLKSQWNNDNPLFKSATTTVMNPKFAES

With “recombinant MMP-9 C-terminal hemopexin-like domain (Asp494-Asp688) (from UniProt P14780 513-707)”, the % inhibition of THP-1 cell binding to KIM127 is 40%.

Source of the values: patent publication US20070207967A1, “Peptide Inhibitors of Matrix Metalloproteinase Activity” (CTT CANCER TARGETING TECHNOLOGIES OY, priority 2004, published 2007).
